These binders were tested against Human ACVR2A (on cells) (human, UniProt P27037 20-513) (assay: cell-based or functional assay).
Human ACVR2A (on cells), sequence (P27037 20-513): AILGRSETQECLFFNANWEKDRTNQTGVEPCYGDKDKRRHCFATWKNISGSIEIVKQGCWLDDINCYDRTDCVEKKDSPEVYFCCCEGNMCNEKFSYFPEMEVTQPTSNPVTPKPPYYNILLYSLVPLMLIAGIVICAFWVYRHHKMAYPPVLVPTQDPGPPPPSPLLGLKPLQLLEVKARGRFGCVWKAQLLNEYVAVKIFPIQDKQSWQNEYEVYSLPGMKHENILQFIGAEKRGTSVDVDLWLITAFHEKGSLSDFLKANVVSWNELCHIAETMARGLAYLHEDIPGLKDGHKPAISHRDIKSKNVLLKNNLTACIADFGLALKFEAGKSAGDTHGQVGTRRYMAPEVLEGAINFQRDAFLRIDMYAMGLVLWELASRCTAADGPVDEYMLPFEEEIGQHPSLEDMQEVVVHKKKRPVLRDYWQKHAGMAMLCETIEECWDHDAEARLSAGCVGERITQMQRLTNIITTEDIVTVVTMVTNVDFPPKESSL

Phospho-SMAD3 Human Skeletal Muscle GDF8 (AlphaLisa, primary human myotubes)	Binder
0.0042	376_B06 (antibody, V domains shown) VH: EVQLLESGGGLVQPGGSLRLSCAASGFTFSSYSMNWVRQAPGKGLEWVAGINYNSGYKGYADSVKGRFTISRDNSKNTLYLQMNSLRAEDTAVYYCARSATWHDTHLDYWGQGTLVTVSS VL: DIQMTQSPSSLSASVGDRVTITCRASQSILTYLNWYQQKPGKAPKLLIYAATSRASGVPSRFSGSGSGTDFTLTISSLQPEDFATYYCQQSYDLPLTFGGGTKVEIK
0.0005	373_E06 (antibody, V domains shown) VH: EVQLLESGGGLVQPGGSLRLSCAASGFTFDSYSMNWVRQAPGKGLEWVAGINYNSGYKSYADSVKGRFTISRDNSKNTLYLQMNSLRAEDTAVYYCARSATWHDTHLDYWGQGTLVTVSS VL: DIQMTQSPSSLSASVGDRVTITCRASQSILRYLNWYQQKPGKAPKLLIYAATSLHSGVPSRFSGSGSGTDFTLTISSLQPEDFATYYCQQSYDNPLTFGGGTKVEIK
0.0244	366_A05 (antibody, V domains shown) VH: EVQLLESGGGLVQPGGSLRLSCAASGFTFSSYSMNWVRQAPGKGLEWVAGINYNSGYTGYADSVKGRFTISRDNSKNTLYLQMNSLRAEDTAVYYCARSATWHDTHLDYWGQGTLVTVSS VL: DIQMTQSPSSLSASVGDRVTITCRASQSILTYVNWYQQKPGKAPKLVIYAATSLASGVPSRFSGSGSGTDFTLTISSLQPEDFATYYCQQSYNTPLTFGGGTKVEIK
0.0059	373_G05 (antibody, V domains shown) VH: EVQLLESGGGLVQPGGSLRLSCAASGFTFSSYSMNWVRQAPGKGLEWVAGINYNGGYTSYADSVKGRFTISRDNSKNTLYLQMNSLRAEDTAVYYCARSATWHDTHLDYWGQGTLVTVSS VL: DIQMTQSPSSLSASVGDRVTITCRASQSILSYLNWYQQKPGKAPKLLIYAATSLASGVPSRFSGSGSGTDFTLTISSLQPEDFATYYCQQSYELPLTFGGGTKVEIK
0.0102	373_B08 (antibody, V domains shown) VH: EVQLLESGGGLVQPGGSLRLSCAASGFTFDSYSMNWVRQAPGKGLEWVANINYNSGYKGYADSVKGRFTISRDNSKNTLYLQMNSLRAEDTAVYYCARSATWHDTHLDYWGQGTLVTVSS VL: DIQMTQSPSSLSASVGDRVTITCRASQSILTYLNWYQQKPGKAPKLVIYAATSLASGVPSRFSGSGSGTDFTLTISSLQPEDFATYYCQQSYENPLTFGGGTKVEIK
0.011	365_F07 (antibody, V domains shown) VH: EVQLLESGGGLVQPGGSLRLSCAASGFTFSSYSMNWVRQAPGKGLEWVSNINYNGGYKSYADSVKGRFTISRDNSKNTLYLQMNSLRAEDTAVYYCARSATWHDTALDYWGQGTLVTVSS VL: DIQMTQSPSSLSASVGDRVTITCRASQSILSYVNWYQQKPGKAPKLVIYAATSRASGVPSRFSGSGSGTDFTLTISSLQPEDFATYYCQQSYDLPLTFGGGTKVEIK
0.0049	373_E02 (antibody, V domains shown) VH: EVQLLESGGGLVQPGGSLRLSCAASGFTFDSYGMHWVRQAPGKGLEWVSGINYNGGYKGYADSVKGRFTISRDNSKNTLYLQMNSLRAEDTAVYYCARSATWHDTHLDYWGQGTLVTVSS VL: not shown
0.0008	373_B11 (antibody, V domains shown) VH: EVQLLESGGGLVQPGGSLRLSCAASGFTFSSYSMNWVRQAPGKGLEWVANINYNSGYKGYADSVKGRFTISRDNSKNTLYLQMNSLRAEDTAVYYCARSATWHDTHLDYWGQGTLVTVSS VL: DIQMTQSPSSLSASVGDRVTITCRASQSILSYLNWYQQKPGKAPKLLIYAATSRASGVPSRFSGSGSGTDFTLTISSLQPEDFATYYCQQSYDNPLTFGGGTKVEIK
0.0076	369_A10 (antibody, V domains shown) VH: EVQLLESGGGLVQPGGSLRLSCAASGFTFDSYSMNWVRQAPGKGLEWVAGINYNSGYTGYADSVKGRFTISRDNSKNTLYLQMNSLRAEDTAVYYCARSATWHDTHLDYWGQGTLVTVSS VL: DIQMTQSPSSLSASVGDRVTITCRASQSILSYLNWYQQKPGKAPKLLIYAATSRASGVPSRFSGSGSGTDFTLTISSLQPEDFATYYCQQSYELPLTFGGGTKVEIK
0.0114	372_D04 (antibody, V domains shown) VH: EVQLLESGGGLVQPGGSLRLSCAASGFTFSSYSMNWVRQAPGKGLEWVANINYNSGYTGYADSVKGRFTISRDNSKNTLYLQMNSLRAEDTAVYYCARSATWHDTHLDYWGQGTLVTVSS VL: DIQMTQSPSSLSASVGDRVTITCRASQSILTYLNWYQQKPGKAPKLLIYAATSLHSGVPSRFSGSGSGTDFTLTISSLQPEDFATYYCQQSYDLPLTFGGGTKVEIK
0.0065	367_A01 (antibody, V domains shown) VH: EVQLLESGGGLVQPGGSLRLSCAASGFTFSSYSMNWVRQAPGKGLEWVASINYNGGYTGYADSVKGRFTISRDNSKNTLYLQMNSLRAEDTAVYYCARSATWHDTHLDYWGQGTLVTVSS VL: DIQMTQSPSSLSASVGDRVTITCRASQSILTYLNWYQQKPGKAPKLLIYAATSRASGVPSRFSGSGSGTDFTLTISSLQPEDFATYYCQQSYDLPLTFGGGTKVEIK
0.0046	370_E07 (antibody, V domains shown) VH: EVQLLESGGGLVQPGGSLRLSCAASGFTFDSYSMNWVRQAPGKGLEWVANINYNGGYTGYADSVKGRFTISRDNSKNTLYLQMNSLRAEDTAVYYCARSATWHDTHLDYWGQGTLVTVSS VL: DIQMTQSPSSLSASVGDRVTITCRASQSILTYLNWYQQKPGKAPKLLIYAATSRASGVPSRFSGSGSGTDFTLTISSLQPEDFATYYCQQSYDNPLTFGGGTKVEIK
0.0209	365_D05 (antibody, V domains shown) VH: EVQLLESGGGLVQPGGSLRLSCAASGFTFDSYSMNWVRQAPGKGLEWVAGINYNGGYTSYADSVKGRFTISRDNSKNTLYLQMNSLRAEDTAVYYCARSATWHDTHLDYWGQGTLVTVSS VL: DIQMTQSPSSLSASVGDRVTITCRASQSILTYVNWYQQKPGKAPKLLIYAATSRASGVPSRFSGSGSGTDFTLTISSLQPEDFATYYCQQSYNSPLTFGGGTKVEIK
0.0068	367_G07 (antibody, V domains shown) VH: EVQLLESGGGLVQPGGSLRLSCAASGFTFDSYSMNWVRQAPGKGLEWVANINYNGGYTGYADSVKGRFTISRDNSKNTLYLQMNSLRAEDTAVYYCARSATWHDTHLDYWGQGTLVTVSS VL: DIQMTQSPSSLSASVGDRVTITCRASQSILTYVNWYQQKPGKAPKLLIYAATSRASGVPSRFSGSGSGTDFTLTISSLQPEDFATYYCQQSYDNPLTFGGGTKVEIK
0.012	369_G07 (antibody, V domains shown) VH: EVQLLESGGGLVQPGGSLRLSCAASGFTFSSYSMNWVRQAPGKGLEWVAGINYNGGYTSYADSVKGRFTISRDNSKNTLYLQMNSLRAEDTAVYYCARSATWHDTHLDYWGQGTLVTVSS VL: DIQMTQSPSSLSASVGDRVTITCRASQSILTYVNWYQQKPGKAPKLVIYAATSRASGVPSRFSGSGSGTDFTLTISSLQPEDFATYYCQQSYDNPLTFGGGTKVEIK

These binders were tested against ACVR2A on primary human myotubes (human, UniProt P27037 20-513) (assay: cell-based or functional assay).
ACVR2A on primary human myotubes, sequence (P27037 20-513): as the sequence (P27037 20-513) above

Phospho-SMAD3 Human Skeletal Muscle GDF8	Binder
0.0052	375_G05 (antibody, V domains shown) VH: EVQLLESGGGLVQPGGSLRLSCAASGFTFSSYSMNWVRQAPGKGLEWVAGINYNGGYTSYADSVKGRFTISRDNSKNTLYLQMNSLRAEDTAVYYCARGANWHDTALDYWGQGTLVTVSS VL: DIQMTQSPSSLSASVGDRVTITCRASQSIVSYLNWYQQKPGKAPKLLIYAVTSRASGVPSRFSGSGSGTDFTLTISSLQPEDFATYYCQQSYDSPLTFGGGTKVEIK
0.0544	376_F06 (antibody, V domains shown) VH: EVQLLESGGGLVQPGGSLRLSCAASGFTFSSYGMNWVRQAPGKGLEWVSGINYNGGYTGYADSVKGRFTISRDNSKNTLYLQMNSLRAEDTAVYYCARGANWHDTHLDYWGQGTLVTVSS VL: DIQMTQSPSSLSASVGDRVTITCRASQSILTYVNWYQQKPGKAPKLVIYAATSRASGVPSRFSGSGSGTDFTLTISSLQPEDFATYYCQQSYETPLTFGGGTKVEIK
0.0605	376_C08 (antibody, V domains shown) VH: EVQLLESGGGLVQPGGSLRLSCAASGFTFDSYSMNWVRQAPGKGLEWVAGINYNSGYTGYADSVKGRFTISRDNSKNTLYLQMNSLRAEDTAVYYCARGANWHDTHLDYWGQGTLVTVSS VL: not shown
0.0042	376_H11 (antibody, V domains shown) VH: EVQLLESGGGLVQPGGSLRLSCAASGFTFDSYSMNWVRQAPGKGLEWVSNINYNGGYTGYADSVKGRFTISRDNSKNTLYLQMNSLRAEDTAVYYCARGANWHDTALDYWGQGTLVTVSS VL: DIQMTQSPSSLSASVGDRVTITCRASQSISRYLNWYQQKPGKAPKLLIYAVTSLASGVPSRFSGSGSGTDFTLTISSLQPEDFATYYCQQSYESPLTFGGGTKVEIK
0.0562	376_H01 (antibody, V domains shown) VH: EVQLLESGGGLVQPGGSLRLSCAASGFTFSDYSMNWVRQAPGKGLEWVAGINYNGGYKGYADSVKGRFTISRDNSKNTLYLQMNSLRAEDTAVYYCARGANWHDTALDYWGQGTLVTVSS VL: DIQMTQSPSSLSASVGDRVTITCRASQSILTYLNWYQQKPGKAPKLLIYAATSRASGVPSRFSGSGSGTDFTLTISSLQPEDFATYYCQQSYSTPLTFGGGTKVEIK
0.0346	375_H05 (antibody, V domains shown) VH: EVQLLESGGGLVQPGGSLRLSCAASGFTFSSYSMNWVRQAPGKGLEWVSNINYNGGYTGYADSVKGRFTISRDNSKNTLYLQMNSLRAEDTAVYYCARGANWHDTALDYWGQGTLVTVSS VL: DIQMTQSPSSLSASVGDRVTITCRASQSILSYVNWYQQKPGKAPKLLIYAATSRASGVPSRFSGSGSGTDFTLTISSLQPEDFATYYCQQSYDTPLTFGGGTKVEIK
0.595	376_F01 (antibody, V domains shown) VH: EVQLLESGGGLVQPGGSLRLSCAASGFTFSDYSMNWVRQAPGKGLEWVAGINYNGGYKSYADSVKGRFTISRDNSKNTLYLQMNSLRAEDTAVYYCARGANWHDTALDYWGQGTLVTVSS VL: not shown

Source: patent US20210380703A1 (RIGEL PHARMACEUTICALS, published 2021)
